This note sets out measurements from publication doi:10.1101/2020.05.28.119206.

The assay concerns the target recombinant medaka ZI-3 precursor (Y74-V420) (medaka). In words: SEC-MALS. (In general: SEC sorts molecules by how far they enter the pores of the column.)

Take “recombinant medaka ZI-3 precursor (Y74-V420) (domain or fragment)”: the stoichiometry N is 2.

Usually stoichiometry N stands for the number of molecules, sites or subunits per partner or assembly.
